We go through eight variants from IntAct's records for PubMed 31515488.

Sequences and labels used below:
B1: 26S proteasome non-ATPase regulatory subunit 9 (Homo sapiens), O00233 (parent)
chain: MSDEEARQSGGSSQAGVVTVSDVQELMRRKEEIEAQIKANYDVLESQKGIGMNEPLVDCEGYPRSDVDLYQVRTARHNIICLQNDHKAVMKQVEEALHQLHARDKEKQARDMAEAHKEAMSRKLGQSESQGPPRAFAKVNSISPGSPASIAGLQVDDEIVEFGSVNTQNFQSLHNIGSVVQHSEGKPLNVTVIRRGEKHQLRLVPTRWAGKGLLGCNIIPLQR
B2: Keratin-associated protein 26-1 (Homo sapiens), Q6PEX3 (parent)
chain: MSCPNYCSGNSNSGSLRTSRHIPLTSIDLCPTSVSCGDVLYLPTSSQDHTWVTDNCQETCGEPTSCQPVHCETGNLETSCGSSTAYYVPRPCQGSSFLPASFFSSSCLPVSCRPQRYVSSGCRPLRPLLNSYQPIGDCVPNAYRPQFCLSKSCQPQNLLTSGCQPSSCLAYRPQSLHVVSSSLRPLGPLFSGCQPLTHVFSTCRPSCSGL
partner: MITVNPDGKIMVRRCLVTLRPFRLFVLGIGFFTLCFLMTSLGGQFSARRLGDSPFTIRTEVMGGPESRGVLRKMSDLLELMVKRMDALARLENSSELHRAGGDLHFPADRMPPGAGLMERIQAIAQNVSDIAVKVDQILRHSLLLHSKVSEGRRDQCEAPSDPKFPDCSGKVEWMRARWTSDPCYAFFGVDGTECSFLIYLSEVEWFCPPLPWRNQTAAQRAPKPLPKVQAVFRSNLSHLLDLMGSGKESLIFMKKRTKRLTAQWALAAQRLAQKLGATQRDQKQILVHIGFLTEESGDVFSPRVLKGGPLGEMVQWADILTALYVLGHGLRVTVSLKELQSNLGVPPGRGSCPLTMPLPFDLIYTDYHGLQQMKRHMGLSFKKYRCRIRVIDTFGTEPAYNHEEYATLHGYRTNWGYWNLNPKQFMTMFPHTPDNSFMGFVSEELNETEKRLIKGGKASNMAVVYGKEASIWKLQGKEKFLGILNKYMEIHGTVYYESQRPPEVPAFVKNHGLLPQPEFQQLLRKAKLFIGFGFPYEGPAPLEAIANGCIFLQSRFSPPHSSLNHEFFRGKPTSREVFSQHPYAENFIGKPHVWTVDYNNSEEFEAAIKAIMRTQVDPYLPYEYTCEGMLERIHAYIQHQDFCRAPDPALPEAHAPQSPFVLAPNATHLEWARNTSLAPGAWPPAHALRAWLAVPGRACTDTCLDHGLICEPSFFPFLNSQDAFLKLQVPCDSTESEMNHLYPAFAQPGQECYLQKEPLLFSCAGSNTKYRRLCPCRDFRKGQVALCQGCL
B3: Notch homolog 2 N-terminal-like protein A (Homo sapiens), Q7Z3S9 (parent)
chain: MCVTYHNGTGYCKCPEGFLGEYCQHRDPCEKNRCQNGGTCVAQAMLGKATCRCASGFTGEDCQYSTSHPCFVSRPCLNGGTCHMLSRDTYECTCQVGFTGKECQWTDACLSHPCANGSTCTTVANQFSCKCLTGFTGQKCETDVNECDIPGHCQHGGTCLNLPGSYQCQCLQGFTGQYCDSLYVPCAPSPCVNGGTCRQTGDFTFECNCLPETVRRGTELWERDREVWNGKEHDEN
partner: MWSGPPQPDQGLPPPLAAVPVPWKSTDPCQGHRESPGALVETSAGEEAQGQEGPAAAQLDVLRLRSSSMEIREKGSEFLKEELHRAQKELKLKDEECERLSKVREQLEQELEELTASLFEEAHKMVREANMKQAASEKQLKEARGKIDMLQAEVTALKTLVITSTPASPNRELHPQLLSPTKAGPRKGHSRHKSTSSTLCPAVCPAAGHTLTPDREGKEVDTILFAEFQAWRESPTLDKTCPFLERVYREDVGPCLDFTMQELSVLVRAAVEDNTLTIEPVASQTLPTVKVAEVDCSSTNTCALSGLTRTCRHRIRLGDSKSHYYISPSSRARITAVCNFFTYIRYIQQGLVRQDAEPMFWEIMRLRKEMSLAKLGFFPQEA
B4: Protein mab-21-like 3 (Homo sapiens), Q8N8X9 (parent)
chain: MKYLTVGDLEDCLLNKVDLRRQQISQAVEEVQKVVHHLTTNISNQDIRFQAVPYSDTYNENIKVLAPSQFLVTVPIKGLAGYREAREQHWRYYTLQGTRLPCPLRDPEGLQQWLEVEQFMKSLWQWHETDVNIDGDIVPAKVLLVFRKLVENAVRTCHLSGKVSLLGNRSAVWVAVETSAYQVELELVPAVEIPTTWSKKARWPRCLQRWPSQERVECIKSFGFNLLACSNYHWQLSFLRAEQVLLEQLDEDGGCRRKCFQVMRHLKEDIWCPGNRPVITSHHLQTVLFWTCEKYPHFKDWQVFSKAFLRLVRKLHKCVSQHFLKHYFVRNSNLFQCTNPTELDTVAQKLATFLKNPQIGPP
partner: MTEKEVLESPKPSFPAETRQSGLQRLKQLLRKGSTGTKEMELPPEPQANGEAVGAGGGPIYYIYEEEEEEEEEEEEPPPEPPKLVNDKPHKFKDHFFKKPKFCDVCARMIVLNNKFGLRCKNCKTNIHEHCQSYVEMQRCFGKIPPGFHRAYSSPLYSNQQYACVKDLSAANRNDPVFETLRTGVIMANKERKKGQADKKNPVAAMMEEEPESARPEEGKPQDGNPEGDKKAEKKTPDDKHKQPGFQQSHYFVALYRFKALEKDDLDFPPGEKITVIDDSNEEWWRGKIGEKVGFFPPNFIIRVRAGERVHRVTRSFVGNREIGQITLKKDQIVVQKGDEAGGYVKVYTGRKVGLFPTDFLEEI
B5: Adiponectin (Homo sapiens), Q15848 (parent)
chain: MLLLGAVLLLLALPGHDQETTTQGPGVLLPLPKGACTGWMAGIPGHPGHNGAPGRDGRDGTPGEKGEKGDPGLIGPKGDIGETGVPGAEGPRGFPGIQGRKGEPGEGAYVYRSAFSVGLETYVTIPNMPIRFTKIFYNQQNHYDGSTGKFHCNIPGLYYFAYHITVYMKDVKVSLFKKDKAMLFTYDQYQENNVDQASGSVLLHLEVGDQVWLQVYGEGERNGLYADNDNDSTFTGFLLYHDTN
B6: Pseudouridylate synthase PUS7L (Homo sapiens), Q9H0K6 (parent)
chain: MEEDTDYRIRFSSLCFFNDHVGFHGTIKSSPSDFIVIEIDEQGQLVNKTIDEPIFKISEIQLEPNNFPKKPKLDLQNLSLEDGRNQEVHTLIKYTDGDQNHQSGSEKEDTIVDGTSKCEEKADVLSSFLDEKTHELLNNFACDVREKWLSKTELIGLPPEFSIGRILDKNQRASLHSAIRQKFPFLVTVGKNSEIVVKPNLEYKELCHLVSEEEAFDFFKYLDAKKENSKFTFKPDTNKDHRKAVHHFVNKKFGNLVETKSFSKMNCSAGNPNVVVTVRFREKAHKRGKRPLSECQEGKVIYTAFTLRKENLEMFEAIGFLAIKLGVIPSDFSYAGLKDKKAITYQAMVVRKVTPERLKNIEKEIEKKRMNVFNIRSVDDSLRLGQLKGNHFDIVIRNLKKQINDSANLRERIMEAIENVKKKGFVNYYGPQRFGKGRKVHTDQIGLALLKNEMMKAIKLFLTPEDLDDPVNRAKKYFLQTEDAKGTLSLMPEFKVRERALLEALHRFGMTEEGCIQAWFSLPHSMRIFYVHAYTSKIWNEAVSYRLETYGARVVQGDLVCLDEDIDDENFPNSKIHLVTEEEGSANMYAIHQVVLPVLGYNIQYPKNKVGQWYHDILSRDGLQTCRFKVPTLKLNIPGCYRQILKHPCNLSYQLMEDHDIDVKTKGSHIDETALSLLISFDLDASCYATVCLKEIMKHDV
partner: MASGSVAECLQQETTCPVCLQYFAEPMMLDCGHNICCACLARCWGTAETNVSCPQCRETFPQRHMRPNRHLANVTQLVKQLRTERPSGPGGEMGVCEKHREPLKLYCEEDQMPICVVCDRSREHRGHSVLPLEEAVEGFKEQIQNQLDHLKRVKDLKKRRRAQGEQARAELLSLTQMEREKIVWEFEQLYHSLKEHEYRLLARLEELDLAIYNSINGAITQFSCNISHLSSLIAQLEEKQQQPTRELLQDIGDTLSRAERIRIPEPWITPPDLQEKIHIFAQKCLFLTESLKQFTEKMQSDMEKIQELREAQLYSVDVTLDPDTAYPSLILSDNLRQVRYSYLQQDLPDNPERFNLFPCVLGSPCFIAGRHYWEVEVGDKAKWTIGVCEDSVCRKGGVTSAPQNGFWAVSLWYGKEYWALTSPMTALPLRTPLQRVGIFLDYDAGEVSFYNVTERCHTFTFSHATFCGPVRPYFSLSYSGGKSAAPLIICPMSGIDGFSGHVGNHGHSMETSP

The variants in the first assay derive from B1. Conditions: with prs6a_human PSMC3, P17980.
Sequence of prs6a_human PSMC3, P17980 (P17980 whole entry): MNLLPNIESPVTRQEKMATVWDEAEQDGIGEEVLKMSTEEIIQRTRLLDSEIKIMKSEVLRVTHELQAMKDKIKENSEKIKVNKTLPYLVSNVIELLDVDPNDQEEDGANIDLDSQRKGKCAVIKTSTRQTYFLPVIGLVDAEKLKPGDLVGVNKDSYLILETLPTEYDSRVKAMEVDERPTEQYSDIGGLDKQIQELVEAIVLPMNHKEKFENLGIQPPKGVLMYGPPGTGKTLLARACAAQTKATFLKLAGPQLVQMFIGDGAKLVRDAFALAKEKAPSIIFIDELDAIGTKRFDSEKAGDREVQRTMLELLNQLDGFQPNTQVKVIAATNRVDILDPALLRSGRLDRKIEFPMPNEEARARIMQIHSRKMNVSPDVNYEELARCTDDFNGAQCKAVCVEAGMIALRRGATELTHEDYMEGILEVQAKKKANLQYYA
Consider MSDEEARQSGGSSQAGVVTVSDVQELMRRKEEIEAQIKANYDVLESQKGIGMNEPLVDCEGYPRSDVDLYQVRTARHNIICLQNDHKAVMKQVEEALHQLHARDKEKQARDMAEAHKEAMSRKLGQSESQGPPWAFAKVNSISPGSPASIAGLQVDDEIVEFGSVNTQNFQSLHNIGSVVQHSEGKPLNVTVIRRGEKHQLRLVPTRWAGKGLLGCNIIPLQR [R134W], for which the “effect of a mutation on the interaction” value was “with no effect”.

Variants of B1 are the subject of a further assay. Conditions: with prs10_human PSMC6, P62333.
Sequence of prs10_human PSMC6, P62333 (P62333 whole entry): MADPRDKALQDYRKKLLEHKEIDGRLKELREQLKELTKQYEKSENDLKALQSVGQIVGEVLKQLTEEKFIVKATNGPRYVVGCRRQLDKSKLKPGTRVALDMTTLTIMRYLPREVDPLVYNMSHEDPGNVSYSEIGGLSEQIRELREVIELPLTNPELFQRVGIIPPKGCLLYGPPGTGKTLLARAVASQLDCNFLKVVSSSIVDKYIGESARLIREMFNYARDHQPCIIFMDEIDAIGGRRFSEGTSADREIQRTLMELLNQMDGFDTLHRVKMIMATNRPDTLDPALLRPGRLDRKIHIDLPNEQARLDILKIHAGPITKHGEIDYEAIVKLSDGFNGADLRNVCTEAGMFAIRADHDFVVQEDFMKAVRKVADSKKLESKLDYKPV
As for MSDEEARQSGGSSQAGVVTVSDVQELMRRKEEIEAQIKANYDVLESQKGIGMNEPLVDCEGYPRSDVDLYQVRTARHNIICLQNDHKAVMKQVEEALHQLHARDKEKQARDMAEAHKEAMSRKLGQSESQGPPWAFAKVNSISPGSPASIAGLQVDDEIVEFGSVNTQNFQSLHNIGSVVQHSEGKPLNVTVIRRGEKHQLRLVPTRWAGKGLLGCNIIPLQR [R134W], the “effect of a mutation on the interaction” value is on record as “with no effect”.

Another assay covers variants of B1. The settings on record: with spn90_human NCKIPSD.
As to MSDEEARQSGGSSQAGVVTVSDVQELMRRKEEIEAQIKANYDVLESQKGIGMNEPLVDCEGYPRSDVDLYQVRTARHNIICLQNDHKAVMKQVEEALHQLHARDKEKQARDMAEAHKEAMSRKLGQSESQGPPWAFAKVNSISPGSPASIAGLQVDDEIVEFGSVNTQNFQSLHNIGSVVQHSEGKPLNVTVIRRGEKHQLRLVPTRWAGKGLLGCNIIPLQR [R134W], the “effect of a mutation on the interaction” value is given as “with no effect”.

In another assay the parent is B2. The settings on record: with mgt5b_human MGAT5B.
On to MSCPNYCSGNSNSGSLRTSRHIPLTYIDLCPTSVSCGDVLYLPTSSQDHTWVTDNCQETCGEPTSCQPVHCETGNLETSCGSSTAYYVPRPCQGSSFLPASFFSSSCLPVSCRPQRYVSSGCRPLRPLLNSYQPIGDCVPNAYRPQFCLSKSCQPQNLLTSGCQPSSCLAYRPQSLHVVSSSLRPLGPLFSGCQPLTHVFSTCRPSCSGL [S26Y], for which the “effect of a mutation on the interaction” value is “with no effect”.

In the next assay the parent is B3. Conditions: with RAB3IL1, Q8TBN0.
R74Q: the “effect of a mutation on the interaction” value is reported as “with no effect”.

Regarding A115T, the “effect of a mutation on the interaction” value is on record as “with no effect”.

The next assay covers variants of B4. The settings on record: with stac3_human STAC3, Q96MF2.
As to MKYLTVGDLEDCLLNKVDLRRQQISQAVEEVQKVVHHLTTNISNQDIRFQAVPYSDTYNENIKVLAPSQFLVTVPIKGLAGYREAREQHWRYYTLQGTRLPCPLRDPEGLQQWLEVEQFMKSLWQWHETDVNIDGDIVPAKVLLVFRKLVENAVRTCHLSGKVSLLGNRSAVWVAVETSAYQVELELVPAVEIPTTWSKKARWPRCLQRWPSQERVECIKSFGFNLLACSNYHWQLSFLRAEQVLLEQLDEDGGCRRKCFQVMRHLKEDIWCPGNRPVITSHHLQTVLFWTCEKYPHFKDWQVFSKAFLRLVRKLHKCVSQHFLKHYFVRNSNLFQCANPTELDTVAQKLATFLKNPQIGPP [T338A], the “effect of a mutation on the interaction” value was “with no effect”.

A further assay covers variants of B5. The settings on record: with sgta_human SGTA.
With Y111H, the “effect of a mutation on the interaction” value is listed as “with no effect”.

Variants of B6 are the subject of a further assay. The settings on record: with tri27_human TRIM27, P14373.
As to I50V, the “effect of a mutation on the interaction” value is on record as “with no effect”.

As for R527C, the “effect of a mutation on the interaction” value is on record as “disrupting interaction strength”.
